Here are results for 80 sequences from the supplement of paper PMC10724198.

± gives the standard deviation of the averaged measurements.
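Note: PSI is a weighted mean of sequencing reads over stability bins, variants kept only with over 10 reads, mCherry proximal and sfGFP distal, peptide attached via GGGS linker.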

The subject of this data set is Saccharomyces cerevisiae. The data set can be described thus: protein stability index of tFT-peptide fusion (C-terminal peptide) (PSI (0-1 scale)); higher = more stable (slower turnover). The conditions noted are these: genetic background: wild type; temperature: 30 C.
SWLASASGSHLI showed a protein stability index of 0.74 ± 0.015.

SWSAVPHSPLMP gave a protein stability index of 0.823 ± 0.068.

In turn, SWVDGGVRRCGV returned a protein stability index of 0.662 ± 0.019.

The sequence SYGPSRPARVPS had a protein stability index of 0.695 ± 0.05.

Regarding SYGRECCGYASA, the protein stability index is 0.764 ± 0.081.

For SYLLPHTRFCFL, the protein stability index is 0.674 ± 0.034.

SYRTCIRHSNAP yielded a protein stability index of 0.7655 ± 0.0074.

Sequence SYRWAFPGVFSG yielded a protein stability index of 0.678 ± 0.031.

The sequence SYVAERVMSRMV registered a protein stability index of 0.65 ± 0.0087.

Consider SYVLLLYTGCRM, for which the protein stability index is 0.585 ± 0.02.

SYWARCVHTTIA registered a protein stability index of 0.669 ± 0.02.

Turning to TARRAAARSSQL, the protein stability index was found to be 0.742 ± 0.03.

In turn, TAVGRKWCGRVL displayed a protein stability index of 0.695 ± 0.028.

TAYPPAPFRRIN returned a protein stability index of 0.492 ± 0.057.

Consider TCHPLCSSSADR, for which the protein stability index stood at 0.712 ± 0.039.

TCLDVFACYASF had a protein stability index of 0.666 ± 0.017.

Take TCRYSSIVDKGS: the protein stability index worked out at 0.612 ± 0.008.

For the sequence TCSSQMSSNFRF, the protein stability index turned out to be 0.638 ± 0.033.

For TDGVVRPQRQAT, the protein stability index was found to be 0.69 ± 0.0093.

Consider TDLPTSMHETRN, for which the protein stability index worked out at 0.695 ± 0.028.

For TDLSLSPAALRH, the protein stability index was 0.717 ± 0.1.

As to TDLSPFPALFSL, the protein stability index was 0.766 ± 0.15.

TDNVVAEKRKSK showed a protein stability index of 0.701 ± 0.18.

Take TDPKLTRTHENE: the protein stability index was 0.674 ± 0.014.

In turn, TEGKPQVDPFDH came in with a protein stability index of 0.704 ± 0.076.

TEGMISSHRVIH had a protein stability index of 0.727 ± 0.058.

In turn, TEKAEVSTSSCR returned a protein stability index of 0.71 ± 0.033.

The sequence TEKERSKKDELK returned a protein stability index of 0.673 ± 0.064.

The sequence TEKWTRSSPMTR yielded a protein stability index of 0.764 ± 0.087.

For TELCPPDTPTGD, the protein stability index is 0.6921 ± 0.0016.

As for TELRRRVGYVAL, the protein stability index is 0.663 ± 0.032.

For TEPHSDQPKKNA, the protein stability index was 0.701 ± 0.14.

TETFARTATRRP had a protein stability index of 0.587 ± 0.022.

Sequence TFGGLRVGFSSL registered a protein stability index of 0.684 ± 0.028.

The sequence TFHCGPFRLFSC showed a protein stability index of 0.6545 ± 0.0055.

Regarding TFLQRFCVGLAL, the protein stability index is 0.654 ± 0.041.

For TFLVDLLSLFFL, the protein stability index came out at 0.65 ± 0.046.

Consider TFRRFKVQQLGN, for which the protein stability index worked out at 0.561 ± 0.023.

On to TGAALPRPGPAL, for which the protein stability index amounted to 0.659 ± 0.031.

For TGDIKYYKDKLE, the protein stability index came out at 0.639 ± 0.0097.

On to TGDTIQNTNCEM, for which the protein stability index was 0.689 ± 0.027.

Sequence TGFGSLWCRSSG yielded a protein stability index of 0.743 ± 0.062.

The sequence TGFGVQRKECGT yielded a protein stability index of 0.629 ± 0.0066.

The sequence TGLRLFRPLSLP showed a protein stability index of 0.776 ± 0.069.

For TGMRKDLVVSFW, the protein stability index amounted to 0.728 ± 0.051.

Take TGSAIVPHQVPS: the protein stability index came out at 0.653 ± 0.015.

Consider TGVRTVCDVGRW, for which the protein stability index came out at 0.6648 ± 0.004.

TGWRGVLGLGPG yielded a protein stability index of 0.674 ± 0.02.

Sequence THHQDGGRAAVR showed a protein stability index of 0.67913 ± 0.00062.

Regarding THPLPAPAPLRP, the protein stability index was determined as 0.762 ± 0.027.

THPPSLAPPRKA registered a protein stability index of 0.712 ± 0.0074.

In turn, THVPPSPIPPIM showed a protein stability index of 0.675 ± 0.0099.

Turning to THYFNIKCSQTK, the protein stability index stood at 0.665 ± 0.013.

THYSTQPKSTKC returned a protein stability index of 0.689 ± 0.027.

Sequence TIGVTCSRLGRG registered a protein stability index of 0.685 ± 0.014.

In turn, TIIGLVSANEYL had a protein stability index of 0.582 ± 0.1.

Take TIKSATLVSFST: the protein stability index turned out to be 0.671 ± 0.072.

In turn, TILPDYTSRILA registered a protein stability index of 0.62 ± 0.012.

The sequence TIRFWRSIFPHA displayed a protein stability index of 0.728 ± 0.051.

In turn, TISRRSCGPAQK yielded a protein stability index of 0.6743 ± 0.0041.

Consider TKDRGRVYRQRG, for which the protein stability index was found to be 0.798 ± 0.051.

On to TKERERAAGKKT, for which the protein stability index was found to be 0.7005 ± 0.0067.

For the sequence TKIKKKKNKKQE, the protein stability index turned out to be 0.731 ± 0.0013.

Regarding TKKETRDKKVER, the protein stability index was determined as 0.721 ± 0.0086.

Turning to TKKIKTDTEENN, the protein stability index was determined as 0.701 ± 0.043.

The sequence TKRKKKTQEGSR came in with a protein stability index of 0.698 ± 0.045.

As for TKRKKLEIGFLR, the protein stability index came out at 0.625 ± 0.079.

In the case of TKTCPMGVIEIC, the protein stability index amounted to 0.656 ± 0.0013.

With TKWYDSSKKTNK, the protein stability index is 0.688 ± 0.075.

In turn, TLDGEAILVIYI had a protein stability index of 0.5944 ± 0.0051.

The sequence TLENEKKKKRNT registered a protein stability index of 0.704 ± 0.084.

TLGGRPFQGTPA yielded a protein stability index of 0.698 ± 0.016.

With TLGYLPLRSLKI, the protein stability index amounted to 0.641 ± 0.046.

Turning to TLIPPLLRNALP, the protein stability index came out at 0.713 ± 0.0066.

The sequence TLMLVTGLSTEV registered a protein stability index of 0.662 ± 0.01.

On to TLPARTIHTTGH, for which the protein stability index is 0.717 ± 0.028.

In the case of TLPPPRPSPSSP, the protein stability index was 0.689 ± 0.035.

As for TLPSRSPAPLPH, the protein stability index stood at 0.643 ± 0.021.

The sequence TLRRPMQVPLGH registered a protein stability index of 0.633 ± 0.04.

In turn, TLSLGCVDSHGV registered a protein stability index of 0.696 ± 0.036.
